According to the nanobody polyreactivity screen of Harvey et al. (2022):

Assay: yeast display, Sf9 membrane polyspecificity reagent, FACS + sequencing; frameworks hold sequencing errors
Outline: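 Polyreactivity labels are assigned by the sorting gate from which each nanobody was recovered. The gates were low and high (top ~1%), set on anti-HA fluorescence for expression and streptavidin fluorescence for reagent binding. Before sorting, galactose-induced (36–48 hours) yeast display cells were stained for 1 hour at 4 °C with 10% biotinylated, detergent-solubilized Sf9 membrane reagent.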

Sequence | polyreactivity (PSR sort gate)
QVQLVESGGGLVQAGGSLRLSCAASGTFQSYAMGWNRQAPGKERELVAAISRSGASTYYADSVKGRFTISRDNAKNTVYLQMISLKPEDTAVYYFAARKTSKYYYWGQGTQVTVSS | high polyreactivity
QVQLVESGGGLVQAGGSLRLSCAASGTFWLYTMGWYRQAPGKERELVAAISLTAGNTYYADSVKGRFTISRDNAKYTVYLQMNSLKPEDTAVYYCAADHYYYTRYEYWGQGTQVTVSS | low polyreactivity
QVQLVESGGGLVQAGGSLRLSCAASGTFYGNTMGWYRQAPGKERELVAVISIDVSTNYADSVKGRFTISRDNAKNTVYLQMNSLKPEDTAVYYCAADYLRQFRDYDYWGQGTQVTVSS | low polyreactivity
QVQLVESGGGLVQAGGSLRLSCAASGTFYYAMGWYRQAPGKEREFVAAISWRGGTTYYADSVKGRFTMSRDNAKNTVYLQMNSLKPEDTAVYYCATAPYVTSRRYGPYEYWGQGTQVTVSS | low polyreactivity
QVQLVESGGGLVQAGGSLRLSCAASGTIFGPNAMGWYRKAPGTERELVAAITLSGGSTYYSDSVKGRFTISRDNAKNTVYLPMNSLKPEDTAVYYCAAGPDYGWRRYDYWGQGTQVTVSW | low polyreactivity
QVQLVESGGGLVQAGGSLRLSCAASGTIFLWYAMGWYIQAPGKERELVASITRGGNTYYADSVKGRFTISRDNAKNTVYLQMISLKPEDTAVYYCAAVSRFWRVPYTYDYWGQGTHVTVSS | low polyreactivity
QVQLVESGGGLVQAGGSLRLSCAASGTIFTVYALGWYRQPPGKERELVAGISSGAGTTYADSVKGRFTISRDNAKNTVYLQMNSMKPEDTAVYYCAAYTWDTDHYWYGYVPYDYWGQGTQVTVSS | low polyreactivity
QVQLVESGGGLVQAGGSLRLSCAASGTIFWIYAMGWYRQAPGKERELVATITRRGGSTYYADSVKGRFTISRDNATNTVYLQMNSLKPEDTAVYFCATEPGYTYLTSYKYDYWGQGTQVTVSS | low polyreactivity
QVQLVESGGGLVQAGGSLRLSCAASGTIFYGNAMGWYRQAPGKEREYVAAITYSGGSTYYADSVKGRFSISRDNAKNTVYLQMNSLKPEDTAVYYCAKAYYPKGRYGFDYWGQGTQVTVSS | high polyreactivity
QVQLVESGGGLVQAGGSLRLSCAASGTITSYAMGWYRQAPGKERELVASIRYRGGSTYYADSVKGRFTISRDNAKNTVYLQMNSLKPEDTAVYYCAADNFAPEFYYWGQGTQVTVSS | low polyreactivity
QVQLVESGGGLVQAGGSLRLSCAASGTLATYAMGWYRQAPGKERELVAAIRYSDGRTYYADSVKGRFTISRDNAKNTFYLQMNSLKPEDTAVYYCAASFRGRGKKLDYWGQGTQVTVSS | low polyreactivity
QVQLVESGGGLVQAGGSLRLSCAASGTNQGVNAMGWYRQAPGKEREFDAAITGRGGNTYYADSVKGRYTISRDNAKNTVYLQLNSLKPDDTAVYYCAARVKDTRYQSMLDYFYWGQGTEVTVSS | high polyreactivity
QVQLVESGGGLVQAGGSLRLSCAASGTNVMGWYRQAPGKERELVAAISGSGGSTYYADSVKGRFTISRDNAKNSVYFQMNSLKPEDSAVYYCAADSIQYTARPYDYWGQGTQVTVSS | low polyreactivity
QVQLVESGGGLVQAGGSLRLSCAASGTTFDSNGRGWYREAPGKERELVAAIRSGDSTYYADSVKGRCTISRDNAKNTVYLQMISLKPEDTAVYYCNKDEATFLSKDDYWGQGTQVTVSS | low polyreactivity
QVQLVESGGGLVQAGGSLRLSCAASGTTFDYYAMGWYRQAPGKERELVAVISSSGGSTYYADSVKGRFTISRDNAKNTVYLQMNSLKPEDTAVYYCAALYRNYGSSYAYYYWGQGTQVTVSS | low polyreactivity
QVQLVESGGGLVQAGGSLRLSCAASGTTFSRYAMGWYRQAPGKEREFVAAISRRAGGTYYADSVKGRFTISRDNAKNTVYLQMNSLKPEDTAVYYCAKVLPRDYIGRATYDYWGQGTQVTVSS | high polyreactivity
QVQLVESGGGLVQAGGSLRLSCAASGTTFSVNAMGWYRQAPGKERELVAAIDYSGGSTYYADSVKGRFTISRDNAKNTVYLQMNSLKPEDTAVYYCNADAYGTPEFTSYAVRYDYWGQGTQVTVSS | low polyreactivity
